Results on one molecule are retold here after article PMC10359635, “Cas1–Cas2 physically and functionally interacts with DnaK to modulate CRISPR Adaptation”.

One series has as its target T1, Cas1 (Escherichia coli, UniProt Q46896 1-305).
T1 sequence: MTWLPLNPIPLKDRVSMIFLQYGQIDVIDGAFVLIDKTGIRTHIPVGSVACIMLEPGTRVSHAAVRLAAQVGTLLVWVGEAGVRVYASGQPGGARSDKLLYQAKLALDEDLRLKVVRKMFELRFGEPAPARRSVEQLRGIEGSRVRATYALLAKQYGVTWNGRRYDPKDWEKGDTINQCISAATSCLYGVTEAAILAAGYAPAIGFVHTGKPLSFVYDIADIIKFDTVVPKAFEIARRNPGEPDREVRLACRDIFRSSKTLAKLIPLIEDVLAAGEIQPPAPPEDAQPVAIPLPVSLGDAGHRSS
As to the kind of experiment: EMSA; mixed with Cy5-ssDNA decoy; aggregates in wells at highest Cas1; EMSA: 20 nM Cy5 fork, 20 mM Tris pH 8.0, 0.1 mg/ml BSA, 7% glycerol (25% after DnaK addition); proteins diluted in 20 mM Tris pH 8.0, 100 mM NaCl, 1 mM DTT; Cas1 preincubated 5 min, then 25 min at 37 C; 5% native acrylamide gel. Particulars: protein: recombinant; tags: C-terminal Strep-tag II; chain copies: 2; label: 5'-Cy5 on MW14; fork: 24 bp duplex 1:2-25 2:27-50; 3' arm of strand 1 25 nt, 5' arm of strand 2 26 nt; 1 nt 5' overhang on strand 1. (In general: In EMSA bound probe runs differently from free probe, usually more slowly.)

The target of the next series is DnaK (Escherichia coli (K-12 MG1655), UniProt P0A6Y8 1-638). The series can be described thus: EMSA; mixed with Cy5-ssDNA; EMSA: 20 nM Cy5 fork, 20 mM Tris pH 8.0, 0.1 mg/ml BSA, 7% glycerol (25% after DnaK addition); proteins diluted in 20 mM Tris pH 8.0, 100 mM NaCl, 1 mM DTT; Cas1 preincubated 5 min, then 25 min at 37 C; 5% native acrylamide gel. Particulars: protein: recombinant; tags: N-terminal 6xHis; label: 5'-Cy5 on MW14; fork: 24 bp duplex 1:2-25 2:27-50; 3' arm of strand 1 25 nt, 5' arm of strand 2 26 nt; 1 nt 5' overhang on strand 1.

Another series addresses DnaK S427P (Escherichia coli (K-12 MG1655), UniProt P0A6Y8 1-638, S427P). As to the kind of experiment: EMSA; EMSA: 20 nM Cy5 fork, 20 mM Tris pH 8.0, 0.1 mg/ml BSA, 7% glycerol (25% after DnaK addition); proteins diluted in 20 mM Tris pH 8.0, 100 mM NaCl, 1 mM DTT; Cas1 preincubated 5 min, then 25 min at 37 C; 5% native acrylamide gel. Particulars: protein: recombinant; tags: N-terminal 6xHis; label: 5'-Cy5 on MW14; fork: 24 bp duplex 1:2-25 2:27-50; 3' arm of strand 1 25 nt, 5' arm of strand 2 26 nt; 1 nt 5' overhang on strand 1.

B1: Fork (flayed duplex MW12/MW14) (dsDNA)
DNA 1: GTCGGATCCTCTAGACAGCTCCATGATCACTGGCACTGGTAGAATTCGGC
DNA 2: CAACGTCATAGACGATTACATTGCTACATGGAGCTGTCTAGAGGATCCGA
As for B1, the values for the binding result in the series with Cas1, in the series with DnaK and in the series with DnaK S427P were “binds”, “no binding” and “no binding”, respectively.
